# Laboratory results taken from IntAct's records for PubMed 10675337.
# B1: GA-binding protein subunit beta-1 (Homo sapiens), Q06547-2 (parent)
# chain: MSLVDLGKKLLEAARAGQDDEVRILMANGAPFTTDWLGTSPLHLAAQYGHYSTTEVLLRAGVSRDARTKVDRTPLHMAASEGHASIVEVLLKHGADVNAKDMLKMTALHWATEHNHQEVVELLIKYGADVHTQSKFCKTAFDISIDNGNEDLAEILQIAMQNQINTNPESPDTVTIHAATPQFIIGPGGVVNLTDETGVSAVQFGNSSTSVLATLAALAEASAPLSNSSETPVVATEEVVTAESVDGAIQQVVSSGGQQVITIVTDGIQLGNLHSIPTSGIGQPIIVTMPDGQQVLTVPATDIAEETVISEEPPAKRQCIEIIENRVESAEIEEREALQKQLDEANREAQKYRQQLLKKEQEAEAYRQKLEAMTRLQTNKEAV
# Variants of: B1
# Conditions: with hcfc1_human HCFC1, P51610
# Sequence of hcfc1_human HCFC1, P51610 (P51610 whole entry): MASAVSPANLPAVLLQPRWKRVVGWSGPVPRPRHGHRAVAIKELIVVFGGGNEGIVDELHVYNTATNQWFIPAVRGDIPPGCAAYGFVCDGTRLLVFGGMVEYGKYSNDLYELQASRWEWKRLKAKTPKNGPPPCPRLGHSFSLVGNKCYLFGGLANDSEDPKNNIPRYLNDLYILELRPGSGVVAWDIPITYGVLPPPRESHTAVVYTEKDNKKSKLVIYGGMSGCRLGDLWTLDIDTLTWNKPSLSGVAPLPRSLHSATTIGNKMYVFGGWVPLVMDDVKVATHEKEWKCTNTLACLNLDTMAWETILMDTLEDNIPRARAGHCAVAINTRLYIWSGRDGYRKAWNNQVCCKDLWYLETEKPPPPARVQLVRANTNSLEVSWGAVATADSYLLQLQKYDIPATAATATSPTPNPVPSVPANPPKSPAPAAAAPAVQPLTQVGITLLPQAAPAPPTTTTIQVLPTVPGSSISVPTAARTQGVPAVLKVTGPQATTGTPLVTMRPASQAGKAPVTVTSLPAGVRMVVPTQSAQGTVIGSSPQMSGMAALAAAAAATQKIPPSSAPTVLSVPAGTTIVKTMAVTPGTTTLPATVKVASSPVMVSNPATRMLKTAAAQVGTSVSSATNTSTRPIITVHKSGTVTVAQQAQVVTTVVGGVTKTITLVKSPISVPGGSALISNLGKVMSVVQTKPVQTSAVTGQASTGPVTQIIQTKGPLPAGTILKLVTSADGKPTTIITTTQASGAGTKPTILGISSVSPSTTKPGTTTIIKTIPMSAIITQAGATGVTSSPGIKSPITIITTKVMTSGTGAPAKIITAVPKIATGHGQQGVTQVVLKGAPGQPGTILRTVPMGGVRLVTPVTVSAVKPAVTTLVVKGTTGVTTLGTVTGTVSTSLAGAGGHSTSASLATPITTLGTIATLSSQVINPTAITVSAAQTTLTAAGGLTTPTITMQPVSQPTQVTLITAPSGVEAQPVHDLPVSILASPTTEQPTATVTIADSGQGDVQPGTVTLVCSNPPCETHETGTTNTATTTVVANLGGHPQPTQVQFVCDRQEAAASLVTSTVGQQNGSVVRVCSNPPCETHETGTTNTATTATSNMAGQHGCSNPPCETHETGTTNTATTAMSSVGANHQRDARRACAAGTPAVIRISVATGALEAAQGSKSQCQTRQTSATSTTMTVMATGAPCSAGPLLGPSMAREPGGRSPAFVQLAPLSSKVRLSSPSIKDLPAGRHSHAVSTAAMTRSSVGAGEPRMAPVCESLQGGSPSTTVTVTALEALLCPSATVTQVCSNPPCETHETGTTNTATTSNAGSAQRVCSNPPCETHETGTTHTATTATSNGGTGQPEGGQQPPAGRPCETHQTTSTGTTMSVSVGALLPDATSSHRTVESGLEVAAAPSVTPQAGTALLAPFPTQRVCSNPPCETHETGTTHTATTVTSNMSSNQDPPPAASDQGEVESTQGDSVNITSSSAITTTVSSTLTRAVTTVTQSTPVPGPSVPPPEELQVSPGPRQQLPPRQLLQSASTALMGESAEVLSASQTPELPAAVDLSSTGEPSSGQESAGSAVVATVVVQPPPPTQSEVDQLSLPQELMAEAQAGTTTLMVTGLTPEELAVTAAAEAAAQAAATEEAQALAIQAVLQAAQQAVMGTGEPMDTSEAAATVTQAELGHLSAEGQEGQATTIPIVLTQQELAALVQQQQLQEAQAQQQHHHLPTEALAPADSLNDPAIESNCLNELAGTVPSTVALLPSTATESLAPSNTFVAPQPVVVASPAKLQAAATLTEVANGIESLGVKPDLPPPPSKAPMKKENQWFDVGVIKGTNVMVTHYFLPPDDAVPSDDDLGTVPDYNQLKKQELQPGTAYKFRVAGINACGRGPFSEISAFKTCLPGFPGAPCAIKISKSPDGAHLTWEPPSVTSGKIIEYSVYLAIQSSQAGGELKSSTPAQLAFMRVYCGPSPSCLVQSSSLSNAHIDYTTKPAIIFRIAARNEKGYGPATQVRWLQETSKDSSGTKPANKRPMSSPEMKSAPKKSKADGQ
row,Variant,effect of a mutation on the interaction
1,MSLVDLGKKLLEAARAGQDDEVRILMANGAPFTTDWLGTSPLHLAAQYGHYSTTEVLLRAGVSRDARTKVDRTPLHMAASEGHASIVEVLLKHGADVNAKDMLKMTALHWATEHNHQEVVELLIKYGADVHTQSKFCKTAFDISIDNGNEDLAEILQIAMQNQINTNPESPDTVTIHAATPQFIIGPGGVVNLTDETGVSAVQFGNSSTSVLATLAALAEASAPLSNSSETPVVATEEVVTAESVDGAIQQAASSGGQQVITIVTDGIQLGNLHSIPTSGIGQPIIVTMPDGQQVLTVPATDIAEETVISEEPPAKRQCIEIIENRVESAEIEEREALQKQLDEANREAQKYRQQLLKKEQEAEAYRQKLEAMTRLQTNKEAV [V252A;V253A],decreasing interaction
2,MSLVDLGKKLLEAARAGQDDEVRILMANGAPFTTDWLGTSPLHLAAQYGHYSTTEVLLRAGVSRDARTKVDRTPLHMAASEGHASIVEVLLKHGADVNAKDMLKMTALHWATEHNHQEVVELLIKYGADVHTQSKFCKTAFDISIDNGNEDLAEILQIAMQNQINTNPESPDTVTIHAATPQFIIGPGGVVNLTDETGVSAVQFGNSSTSVLATLAALAEASAPLSNSSETPVVATEEVVTAESVDGAIQQVVSSGGQQVITIVTDGIQLGNLHSIPTSGIGQPIIVTMPDGQQALTAPATDIAEETVISEEPPAKRQCIEIIENRVESAEIEEREALQKQLDEANREAQKYRQQLLKKEQEAEAYRQKLEAMTRLQTNKEAV [V295A;V298A],decreasing interaction
